Measurements taken from US20220177841A1, “EX VIVO METHODS FOR PRODUCING A T CELL THERAPEUTIC AND RELATED COMPOSITIONS AND METHODS” (Myst Therapeutics LLC, priority 2019, published 2022).

Tested on: expanded human T cells from three healthy donors
Assay: T cell adjuvant high throughput screen, total viable CD3+ cell count
Format: cell-based
Conditions: 62.5 IU/ml-1000 IU/ml; 6 days
Experimental: Cells were expanded from PBMC derived from Ficoll gradient separation from three healthy donor's apheresis material. […] Cells were next seeded into gas permeable 100M culture vessels and expanded for 7-14 days to achieve a large bank of T cells, and cryopreserved. […] Half of wells were additionally supplemented with 50 ng/mL OKT3, a human anti-CD3 monoclonal antibody. In total, 15 test adjuvant agents were tested for their impact on cell viability in the presence and absence of anti-CD3 activation (see Table E3). Cells were cultured for 6 days total, including a 50% medium exchange on culture day 3, and monitored for total viable CD3+ cell count.
Total viable CD3+ cell count for cells grown in the absence and presence of OKT3 stimulation are shown in FIGS. 27A-C and FIGS. 28A-C, respectively. The results shown are for the following concentrations of adjuvant: 10 μg/mL for tested antibodies (Tavolixizumab, Oxelumab, Ipilimumab, Tocilizumab, Urelumab, Pembrolizumab, Varlilumab, anti-GITR MK-1248, anto-human FasL); 25 μM for Z-VAD-FMK pan-caspase inhibitor; 250 nM for HSP inhibitor NVP-HSP990; and 1000 IU/mL for cytokine (IL-7, IL-15 or IL-21).

B1: IL-7: recombinant cytokine tested as T cell adjuvant (protein, UniProt P13232 26-177, looked up)
Interleukin-7: DCDIEGKDGKQYESVLMVSIDQLLDSMKEIGSNCLNNEFNFFKRHICDANKEGMFLFRAARKLRQFLKMNSTGDFDLHLLKVSEGTTILLNCTGQVKGRKPAALGEAQPTKSLEENKSLKEQKKLNDLCFLKRLLQEIKTCWNKILMGTKEH
  dose response, cell number: cell number increased with increasing concentration
